assay: soluble on expression in E. coli; label from the status in PepcDB or PDB records

Sequence	soluble on expression in E. coli
MYPLNIDGEELYLRDLKINDLPNLLKWYNNIDDFSLATGVYKPITLKEILERYFKCQSSSKDFFAGIYIRKSGEMIGVLKGWLDCEKDLSAWINSIIIDPGFQRKGYGSKTVNLFIRHVKECCNVKRVYLSVAEENFKGMSFWKQQSFREVKKISKDRDSVSKCKSIVIMCREI	not soluble
MYQEFFTFIPVDIEELDKAFGGGLIRGATISIMYDAFSLGWALGFEMVKNLIRRNSFGVIHNYNLPTIKLISRASFVGLNIQELAKRKEIMILDVFGSKYDVPPYADYVLQVPNPTPETLNPKIESVYENKIFQVAGDRRIVKLVYTLDGVATMFGEEVAIKLLNGELAWLAKMYGKRNVMTILLLNVDMVSKKFIAWTSGVSDIVITFQSLTEEREGELVERMTVIKSLNPEFEPTSYEFRVTATGTGSHALDFRKIENKRDK	soluble
MYRLERTQRLPISIDEAWDFFASPDNLKKITPAYMGFDIKSGGGIPMYAGMIIKYTVRPLLGIPMTWVTEITHVEPQRFFVDEQRVGPYAIWHHQHHFKAIENGVEMTDILHYKLPFGILGNLAHPFLVKNKLEEIFNFRNKKMVELFGTYKLEHHHHHH	soluble
MYRVFECFDELIDILEKSTGVPMTSNCMVPRHHMLALIDEARNALPNEIDDAQDVIDQQDEILRGAQERARTTIDEANEEARRTVTQSREEADALVADAEEHAERVVRQAQDEADRLVDGARREADDTVNRAQAEAERLIASGNDQYQRSVDDGLAEQQRLVSEAEVVRRANEEAHRVVDAAHADSNRLRKECDTFVENKLADLEESLSSTLRTISRDRAALRRGAGASGGGNHSQS	not soluble
MYSCTSPSGIKVSLSTPEIWEEFYPKTEMIVTRNRGRVIFPHLDYIIKGLDPGSLYSIYIHLERVDGIKYKFDAGEWKEFAKGDPILPIQYKEHPRGKRTGAEWMSEPVSFAHIKITNNPEIKDQKVILVQSMHKHIPVVTVKQVRHYKTGYQEDFSGEQFRLEATEFMVVTAYQNEILKNLKVHHNKFASGFRSNGKRRLSSDSENSENSPPKRSKLVTPPTISPQIDLPQQTPYYFNQNFVAPQNYQPQFASAQNYNFEVQNNAQLAWNMYYQKQYEFWWQQQQMMMPGQPQELKNEFQSL	not soluble
MYSDKVFDHFQNPRNVGKIEDADGVGTVGNPVCGDLMTIYIKVKDNRIEDIKFQTFGCAAAIATSSMATEMAKGKTIEEALKITRDAVAEALGGLPKQKMHCSNLAADALRRAIVDYFRKNGKIDKIKELGLEKELEKMEKGEMDDHGEYCEA	not soluble
MYSEERRRQIASLTAVEGRVNVTELAARFDVTAETIRRDLAVLDREGVVHRVHGGAVANQTFQTAEFSLDTRSRSASGAKNSIAHAALSYLPEAQGGLFLDAGTTTAALAELLAAQPFAKHWSIVTNSLSIALTLANSGLDEIQLLGGSVRAITQAVVGDTALRTLALMRADVAFIGTNALTIDHGLSTADSQEAAIKSAMITNAHKVVVLCDSTKMGTDYLVSFGSISDIDVIITDANAPESFVKALRDRDVEVIIALEHHHHHH	soluble
MYSLIRHGRSLVELQKWRHLRVLVQKASPLSNSFSSASAARLSPRVGRKGKSFTVSYLVDSLGLPKKLAESVSRKVSFEDKDNPDSVLNLLRSHGFTDSQISTIVTDYPQLLVADAEKSLAPKLQFLQSRGASSSELTEIVSTVPKILGKRGHKTISVFYDFIKETLLDKSSKSEKSCQPFPQGNLENKIRNLSVLRELGMPHKLLFPLLISCDVPVFGKEKFEESLKKVVEMGFDPSTSKFVEALCVVQRLSDKNIEDKVNAYKRLGFDVEYVWTVFKRWPNFLTHSEKKILNTIETFLGLGFSRDEFSVLIKRFPQGIGLSAEMVKKKTEFLVKKMNWPLKALVSNPAVLGYSLEKRTVPRGNVVQALISKGLIGSELPSISRVFVCTDQVFLNRYVKRHEDKQLETELMAIYRAS	soluble
MYSLLTLLFVLFFSGSTLLVQCGGKKKGATSAEGKSSTMGPAPGGAPAAASAQGEPEEKE	not soluble
MYSYKHPIYCANPVLSGQKIIELPPMNVPFSTYYEVYVTVQDHIPISSFVSMDLIMKNDNYSGGNFQVYSKDVSGILASHSNHFSPVTYSMQLQYEYKNWAEEDTQVRVYSDRLPPYWLPYCD	not soluble
MYVTVTEAAYKKIMDTIPSEAKYIKLFYDNEGCGCVMSGIIDLVAVAEKDERDVDIESSTMNFIADRTKLVFMDDKLTVDWHEGGGTFQLKSPSQFYNPNMKLHVRVLEHHHHHH	soluble
MYVVINIDPGSTLNELMAFMTQKTITFSVTDQLSRLCDRTANGDRREVCTQTDDNCFDPPPNKKSKGYNGEDYGSPCSSATPSEPVDLGILTKTNGNSNGNHNWDTESKVLRGLIRSENGRSKSSIKEEPEEASVEDDISTEYMQNQLMQALFPKNQNGSGLANFASLEDNESIEGESGGLSDLGGFNMDSSSPASAIRYKPAYASTKRGVCRVCNREVSLITTHRRRHAITHLGFKTLKCALCYKFFSRQDLATGHFKKDHPTSEFMPFVDTMSPEDERQLVVMMELCFPEETGPRKRKDTDPKKQKVGEVEDSF	not soluble
MYYGALSIRAEAWLIVSPEVTKIMAKEQTDRTTLDLFAHERRPGRPKTNPLSRDEQLRINKRNQLKRDKVRGLKRVELKLNAEAVEALNELAESRNMSRSELIEEMLMQQLAALRSQGIV	not soluble
NAMPPIIKRRVMRKIIIASQNPAKVNAVRSAFSTVFPDQEWEFIGVSVPSEVADQPMSDEETKQGALNRVRNAKQRHPGAEYYVGLEAGIEENKTFAWMIVESDQQRGESRSACLMLPPLVLERLRQAKELGDVMDEVFGTENIKQKGGAIGLLTRHHLTRSTVYHQALILALIPFINPEHYPSA	soluble
NDEDCRNIYRYSPKDRKFEKLNLETDVTSAFAMSENNPSLAAYIGQGCYNAGVAYVYDLKKKTSRLIADPMKPTLERIELGEMKPWNFTASDGTEIKGMMCLPPSFDPNKKYPLIVYYYGGTTPTERGISNPYCAQLFASRDYVVYVIQPSGTIGFGQEFSARHVNAWGKRTADDIIEGTKQFCKEHPFVNDKKIGCLGASYGGFMTQYLQTQTDIFAAAVSHAGISNVTSYWGEGYWGYGYNAIAAADSYPWNNPELFTKQGSLFNADKINTPLLLLHGTVDTNVPIGESIQLFNALKILGKTVEFITVDGENHFIADYPKRMQWHNSIMAWFARWLQ	not soluble
NDIYNNAITPYLNKETGYQEMFQRVNTRIREFMINELKNHHNEDNVFMLAKNSGIEIAKIEEAPNAVLIPAFVLGELEVAFK	not soluble
NEAPIDMHGGKSAKIERQSVENSAQKENSKSAILERLKRLREYSKDHLKAFQRLQVQDFDGRIKPLDTISIEYIHKILKKDDFQGLNAMQVLLGIMFFPNDWRSIKMIYTSTKALRKLIGTPLDESRIAFRDAFDSRGYKLKNLVEEVNQKSPNARNELDKDVLKVDERINLVYTLFSAQFLRIFPSDKTTAWLSPIEAISSPNKEISSVATEFLKNIFSGFDDALKTNQWDKVEKTLKDLSIYQKEHAKNLYLSSSKVDSEIFLNHTNFFNRLT	not soluble
NEHSKWMILDRVRFTLDGLECDKIGVGYEAYRNQPNFCSAPYGSCLGNQLWNFWEYDKRRIDNSQLPLYIVEGRFQRINQHPNAGAHTFSVGVTEDLNTNLLIELMADDIEYVYQRSPAKIIDIRVPTFEALSQVGIANVTTKNIGKLESSYSLTFKCSSGISPVEEQLYTMKPDEVIARSFELRSTTDQAAMHQCEAILKASDFSELDREGYRFSTAATVYNNGAQIGPTNDHKKGGFWDSIKALWRNLIDFLTGRLCWTKCPRLFDFGCHI	not soluble
NGEVEVPKTELEEIQQQCNQVTDDSLESTRRMLNMCEESKEAGIRTLVMLDEQGEQLDRIEEGLDQINQDMKDAEKNLEGMEK	soluble
NHELDWSDIKGQHHAKNAMVIAACGGHSILLSGAPGSGKTMMAKRFSTLLPELSETQALECAAINSIRGKLPDFREWRLPPFRAPHHTASPVALVGGGNPPKPGEISLAHHGVLFLDELPEFNRQVLETLREPLESGHICISRAAAQIEFPAKFQLIAAMNPCPCGQWGNSQANCLCTPDRI	not soluble
NIDSNKKILQEIKRYADEHEERYGRFPKTLIFAVQDLANSSSHADQIVDQARDIFGRGDSFVQKITGKVDRPLQRIREFRNRKEPGIAVTVDLLSTGVDVPDIEYIVFLRSMKSRILFEQMIGRGTRKGEH	not soluble

— the DeepSol protein solubility set
